Here are results for one substance from patent US20250066460A1.

This assay deals with complement C1s (UniProt P09871). Kind of assay: cell-based or functional assay.
UniProt P09871, sequence (P09871 16-688 limits assumed): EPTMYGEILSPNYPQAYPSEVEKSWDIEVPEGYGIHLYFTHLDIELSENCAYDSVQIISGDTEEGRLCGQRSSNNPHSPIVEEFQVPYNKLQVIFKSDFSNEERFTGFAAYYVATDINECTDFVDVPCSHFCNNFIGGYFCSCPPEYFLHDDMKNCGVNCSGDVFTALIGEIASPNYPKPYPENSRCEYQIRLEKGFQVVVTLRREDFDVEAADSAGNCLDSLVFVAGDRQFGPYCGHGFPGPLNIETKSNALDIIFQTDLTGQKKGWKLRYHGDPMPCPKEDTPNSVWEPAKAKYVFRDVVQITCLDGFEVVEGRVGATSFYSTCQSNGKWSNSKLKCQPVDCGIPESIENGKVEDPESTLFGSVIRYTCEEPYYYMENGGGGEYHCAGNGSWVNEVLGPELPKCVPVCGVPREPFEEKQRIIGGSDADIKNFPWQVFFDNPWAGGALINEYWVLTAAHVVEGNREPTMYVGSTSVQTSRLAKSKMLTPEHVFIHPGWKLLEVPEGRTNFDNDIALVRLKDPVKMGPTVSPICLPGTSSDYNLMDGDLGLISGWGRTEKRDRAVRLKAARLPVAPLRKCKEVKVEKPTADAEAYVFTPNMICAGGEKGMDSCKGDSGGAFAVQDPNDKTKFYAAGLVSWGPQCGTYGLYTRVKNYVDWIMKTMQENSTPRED

In the case of TNT009 (antibody), the concentration blocking C3 fixation on sNF02.2 Schwann cells opsonized with MMN-patient serum (flow cytometry) amounted to 53 µg/mL and the lowest concentration blocking C3 deposition on fixed iPSC-derived motor neurons (titration 3-200 µg/mL) was 12 µg/mL.
